Tests used:
[1] = molecular target: A3B4 subunit of glycinin accumulated in transgenic soybean seeds (post-translationally processed mature form) (Glycine max (soybean)); test: SEC; soluble extract of dry mature transgenic seeds on a Hi-Load 16/600 Superdex 200 pg column in potassium phosphate buffer (35 mM potassium phosphate, pH 7.6, 0.4 M NaCl), 1.0 mL/min; fractions analysed by SDS-PAGE and western blot with anti-A3B4 serum; size by comparison with molecular weight standards
[2] = molecular target: recombinant luminal domain of GmVSR (soybean vacuolar sorting receptor) (Glycine max (soybean)); test: SPR; GmVSR(LU) amine-coupled on a CM5 chip (1000-1200 RU), BIACORE2000; GST fusion proteins injected 180 s, eluted with salt buffer 180 s, 25 °C, 30 uL/min; control flow cell subtracted; three independent experiments

Row | stoichiometry N [1] | Kd [2] [nM] | Molecule
1 | 6 |  | A3B4 subunit of glycinin accumulated in transgenic soybean seeds (post-translationally processed mature form) (natural protein)
2 |  | 98 | PQESQKRAVA [GST fused with the 10-residue C-terminal peptide of A1aB1b]

Reference: PMC5773536
